From the nanobody polyreactivity screen of Harvey et al. (2022)

Assay: yeast display, Sf9 membrane polyspecificity reagent, FACS + sequencing; frameworks hold sequencing errors
Summary of the method: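 Synthetic nanobody libraries on Saccharomyces cerevisiae BJ5465 were galactose-induced for 36–48 hours, stained 1 hour at 4 °C with 10% biotinylated, detergent-solubilized Sf9 membrane reagent and enriched on streptavidin microbeads. FACS then separated cells into low and high (top ~1%) gates by anti-HA (expression) and streptavidin (reagent binding) fluorescence. Genes were colony-PCR amplified, MiSeq 2 × 250 sequenced and CDR-length filtered. A clone's polyreactivity label is that of its gate of origin.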

Sequence	polyreactivity (PSR sort gate)
QVQLVESGGGLVQAGGSLRLSCAASGRIYDRYDMVWYRQAPVKERELVAAISSGGSTYYADSVKGRFTISRDNAKNTVYLQMNSLKPEDTAVNNCAADRRSKYDYWGQGTQVTVSA	low polyreactivity
QVQLVESGGGLVQAGGSLRLSCAASGSTFSYNAMGWYRQAPGKERELVAAINLRGGNTYYADSVKGRFTISRDNAKNTVYLQMNSLKPEDTAVYYCARTRRHSQNFDYWGQGTQVIVSS	high polyreactivity
QVQLVESGGGLVQARGSLRLSCAASGRIFKYNAMGWYRQAPGKESELVAAISGGGSTNYADSVKGRFTISRDNAKNTVYLLMNSLKPEDTAVYYCAKGYRRVYGPFYYWGQGTQVTVSS	low polyreactivity
QVQLVESGGDLVQAGGSLRLSCDASGRTCSANGMGSYRQSTGKERELVAAITRSGGITYYADSVKGRFTISRDNAKNTVYLQMNSLNPEDTADYYCAASVYSLSRRSWMDYWGQGTQVTVST	low polyreactivity
QVQLVESGGGLVQSGGSLRLSCAASGSIFSAYAMGWYRQAPGKEREFVAAITRRGGNTYYADSVKGRFTISRDNAQNTVYLQMNSLKPEDSAVYYCAADAGGGPFDYWGQGTQVSVSS	low polyreactivity
QVQLVESGGGLVQAGGSLRLSCAASGSTFVAYAMGWYRHAPGKERELVADISTSDGSTRYADSVKGRFTISSDNAKNTVYLQMISLKPEDTAVYYCGAGSEYYSYGGVRFSFYYWGQGTQVTVSS	low polyreactivity
QVQLVESGGGLVQAGGSLRLSCAASGRTFSTYAMGWYRQAPGKERELVAAITTSGGNTYYADSVKGRFTISRDNAKNTVYLQMNSLKPEDTAVYYCNADYFPTYDYWGQGTQVTVSS	low polyreactivity
QVQLVESGRGLFQAGGSLRLSCAASGRIFRYYAMGWSRQATGKERELVAAISGSGGSTYYAASVKGRFTISGDNAKNTVYLLMNSLKPEDNAVYYCNALYRIASGEGDLWGQGTQVTVSS	low polyreactivity
QVQLVESGGGLVQAGGSLRLSCAASGRIFQYYAMGWYRQAPGKERELVAAISRGGSTNYADSVKGRFTISRDNAKNTVYLQMNSLKPEDTAVYFCAADEYRYYFYRAGIGFDYWGQGTQVTVSS	low polyreactivity
QVQLVESGGGLVQAGGSLRLSCAPSGFTLSTYAMGWYRQAPGKERELVAAISRSTDRTYYADSVKGRFTISRDNAKNTVYLQMNSLKPEDTAVYYCAAKSVYYLYRFYYWGQGSQVTVSS	high polyreactivity
QVQLVESGGGLVQAGGSLRLSSAASGLIFSVNAMGWYRQAPGKESEMIAAISKSGGRTYYADSVKGRFTISRDNAKNTVYLQMNSLKPEDTAVYYCAKRSRWNYKGYGTCGYYWGQGTQVTVSS	high polyreactivity
QVQLVESGGGLVQAGGSLRLSCAASGRTFHRYAMGWYRQAPGKERELVAAITSSGGSPNYADSVKGRFTISRDNAKNTVYLQMNSLKPEDTAVYYCATDRYRYTSHPWSRGFDYWGQGTQVTVSS	low polyreactivity
QVQLVESGGGLVQAGGSLRLSCAASGRTLGGYTMGWYRQAPGKERELVAAITTGGSTNYADSVKGRFTISRDNAKNTVYLQMNSLKPEDTAVYYCATDLVFDKRYWYDYWGQGTQVTVSS	low polyreactivity
QVQLVESGRGLVQAGGSLRLSCAASVNIFRGYTMGRYRQAPGTERELVATITWNGVSTFYADSVKGRFTISRDNAKNTVYLQMHSLKPEDTAVYYCAAYYPSHDYSGFWSDTYEYWGQGTQVTVSS	low polyreactivity
QDALVESCGGLVQAGGSLRLICAASGSTFDTYALGWYRQAPAKEWELVAGISWSGGSTFFADSVKGRFTISRDNAKNTVSLQMNSLKPEDTAVYDCAKQLWVGVKYDYWGQGPQVTVSS	low polyreactivity
QVQLVESGGGLVQAAASLRLSCPASGSTFRFYTMALYIQSPGTESDLVAAITRRGGITFYSDSVKWRFTISRDNAKNTVYLHMNSLKPEDTAVYDCAARFAYWGQDYYFWGQGSQVTVSS	high polyreactivity
